From PMC6075780, “Interaction of lipoprotein QseG with sensor kinase QseE in the periplasm controls the phosphorylation state of the two-component system QseE/QseF in Escherichia coli” (PLoS Genetics, 2018)

T1: QseG-Strep (E. coli K-12, UniProt P0AD44 26-237, Cys26 predicted by the paper to be lipidated)
T1 construct: QseG of E. coli K-12, 237 amino acids as precursor; QseG-Strep was found in the cell envelope fraction; also called lipoprotein QseG; source: E. coli, from plasmid pYG191 (Ptac, IPTG) in strains Z952 and Z986, or from plasmid pYG319 in strain Z970; in lysate; not shown: Strep-tag, C-terminal, kept
T1 sequence (looked up): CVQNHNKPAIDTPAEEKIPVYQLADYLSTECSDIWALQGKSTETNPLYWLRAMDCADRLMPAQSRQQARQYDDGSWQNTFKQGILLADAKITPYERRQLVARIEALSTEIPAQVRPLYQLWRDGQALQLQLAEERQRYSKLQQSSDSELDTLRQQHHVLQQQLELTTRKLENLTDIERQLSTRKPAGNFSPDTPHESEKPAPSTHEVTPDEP

B1: QseE-S58N-3×FLAG (natural protein, E. coli K-12, UniProt P52101 1-475, looked up)
chain: MKRWPVFPRSLRQLVMLAFLLILLPLLVLAWQAWQSLNALSDQAALVNRTTLIDARRNEAMTNAALEMERSYRQYCVLDDPTLAKVYQSQRKRYSEMLDAHAGVLPDDKLYQALRQDLHNLAQLQCNNSGPDAAAAARLEAFASANTEMVQATRTVVFSRGQQLQREIAERGQYFGWQSLVLFLVSLVMVLLFTRMIIGPVKNIERMINRLGEGRSLGNSVSFSGPSELRSVGQRILWLSERLSWLESQRHQFLRHLSHELKTPLASMREGTELLADQVVGPLTPEQKEVVSILDSSSRNLQKLIEQLLDYNRKQADSAVELENVELAPLVETVVSAHSLPARAKMMHTDVDLKATACLAEPMLLMSVLDNLYSNAVHYGAESGNICLRSSLHGARVYIDVINTGTPIPQEERAMIFEPFFQGSHQRKGAVKGSGLGLSIARDCIRRMQGELYLVDESGQDVCFRIELPSSKNTK
notes: Histidine kinase QseE of E. coli K-12 with the S58N exchange in the periplasmic loop; also called QseE-S58N variant; source: E. coli strain Z970, from plasmid pYG318-S58N, in lysate; not shown: 3×FLAG, C-terminal, kept

What was measured:
T18-QseE (pYG246) = test: BACTH assay (bacterial two-hybrid, β-galactosidase read-out), homodimerization; conditions: reporter strain BTH101; plasmids pYG246/pYG199_TM1; parent: est. 3600; read off a plot
QseG-Strep [1] = biological target: T1, QseG-Strep; test: pull-down; bait and prey from two compatible plasmids in E. coli Z970 (1 mM IPTG, 0.2% arabinose, 3 h); cleared lysates with MagStrep type3 XT beads 60 min at 4°C, washed 4× with buffer W; Western blot; conditions: partners not purified
QseG-Strep [2] = biological target: T1, QseG-Strep; test: cell-based or functional assay

Row | Molecule | response (T18-QseE (pYG246)) [Miller units] | fold reduction of co-purifying protein against wild-type QseE-3×FLAG (QseG-Strep [1]) [fold] | fold decrease in glmY'-lacZ β-galactosidase activity of the ΔqseE strain Z970 complemented with plasmid-encoded QseE-S58N (pYG221-S58N), against wild-type QseE (pYG221) (QseG-Strep [2]) [fold]
1 | T25-QseE (from UniProt P52101) F19L; L21H; I22R; L23P; L24P | 1000 | – | –
2 | B1 | – | ~3 | 3
